Laboratory results taken from PMC11266487.

Target: angiotensin converting enzyme 2 (ACE2) (human (endogenous in BCi.NS1.1)) (UniProt Q9BYF1)
Chain of UniProt Q9BYF1 (Q9BYF1 18-805): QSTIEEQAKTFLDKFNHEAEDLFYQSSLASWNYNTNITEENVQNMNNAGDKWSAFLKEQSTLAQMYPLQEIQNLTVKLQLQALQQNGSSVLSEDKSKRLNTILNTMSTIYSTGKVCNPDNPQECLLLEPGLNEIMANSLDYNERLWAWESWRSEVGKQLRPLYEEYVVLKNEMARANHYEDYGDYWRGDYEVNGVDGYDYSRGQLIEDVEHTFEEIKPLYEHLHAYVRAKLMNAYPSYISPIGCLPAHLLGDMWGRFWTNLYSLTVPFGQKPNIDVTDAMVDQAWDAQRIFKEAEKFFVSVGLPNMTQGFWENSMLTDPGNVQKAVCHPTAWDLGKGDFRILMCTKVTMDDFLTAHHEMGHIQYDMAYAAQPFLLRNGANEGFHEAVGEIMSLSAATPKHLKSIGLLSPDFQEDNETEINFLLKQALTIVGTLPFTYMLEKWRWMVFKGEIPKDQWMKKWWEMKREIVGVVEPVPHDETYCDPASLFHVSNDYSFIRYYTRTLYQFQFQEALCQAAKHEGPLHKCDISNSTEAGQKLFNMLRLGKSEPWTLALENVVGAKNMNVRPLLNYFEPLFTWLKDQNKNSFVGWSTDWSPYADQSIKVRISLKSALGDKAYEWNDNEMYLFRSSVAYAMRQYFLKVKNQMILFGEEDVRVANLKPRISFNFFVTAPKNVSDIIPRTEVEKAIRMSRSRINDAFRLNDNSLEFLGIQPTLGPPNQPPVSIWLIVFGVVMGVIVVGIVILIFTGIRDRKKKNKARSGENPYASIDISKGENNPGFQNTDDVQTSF

Substance: Wuhan-Hu-1 [S1S2] spike protein (natural protein)
- Ki for reduction of cAMP-activated CFTR chloride channel activity (Ussing chamber, differentiated BCi.NS1.1 epithelia): 0.446 mg/L

Substance: β-1.351 [S1S2] spike protein (natural protein)
- Ki for reduction of cAMP-activated CFTR chloride channel activity (Ussing chamber, differentiated BCi.NS1.1 epithelia): 0.21 mg/L
